Experimental findings from patent US20060263334A1 are described below.

The target in assay [1] is scTCR-AGD-CD4TM-hζ (human) (UniProt P01730). The assay is described as follows: flow cytometry, 293H cells transfected with scTCR-AGD-CD4TM-hζ; bar marked **. Reference bars: 293H 1.1, Control vector 1.4.
For another assay, the target named is scTCR-CD4TM-hζ (human) (UniProt P01730). The assay is described as follows: flow cytometry, 293H cells transfected with scTCR-CD4TM-hζ. Reference bars: 293H 1.1, Control vector 1.4.
The target of assay [2] is MA scTCR (single chain Vα23.1Jα14.3-linker-Vβ8.3DβJβ1.2-Cβ2 fused through a thrombin-site linker to the murine CD3 ξ chain), displayed on transfected RBL or BWZ cells (human; mouse). The assay is described as follows: flow cytometry, 293H cells transfected with scTCR; bar marked **. Reference bars: 293H 1.1, Control vector 1.4.

Regarding anti-TCR βF1 antibody, the Fold increase in MFI in assay [1] was found to be 6.5 fold; in the assay with scTCR-CD4TM-hζ (human), 2.1 fold; in assay [2], 4.4 fold.
